Measured values from article PMC4858977.

Columns and labels:
Experiment in all cases: MITOMI
RXRα = molecular target: T1, RXRα (UniProt P28700); conditions: On-chip MITOMI, 1 h equilibration; buffer, salt, pH and temperature not in the material (as ref. 23)
T1 sequence: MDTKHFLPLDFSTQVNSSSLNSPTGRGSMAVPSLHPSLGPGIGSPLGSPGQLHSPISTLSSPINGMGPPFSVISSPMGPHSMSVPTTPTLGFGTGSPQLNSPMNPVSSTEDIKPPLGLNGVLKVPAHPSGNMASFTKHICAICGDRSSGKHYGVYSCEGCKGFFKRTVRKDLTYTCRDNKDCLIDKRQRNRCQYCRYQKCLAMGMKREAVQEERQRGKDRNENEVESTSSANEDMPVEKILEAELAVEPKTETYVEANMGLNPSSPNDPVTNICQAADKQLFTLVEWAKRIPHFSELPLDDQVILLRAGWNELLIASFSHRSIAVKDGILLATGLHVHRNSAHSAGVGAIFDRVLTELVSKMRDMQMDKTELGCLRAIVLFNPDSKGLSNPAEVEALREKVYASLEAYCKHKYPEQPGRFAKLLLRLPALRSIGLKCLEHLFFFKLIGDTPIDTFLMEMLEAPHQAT

PPARγ = molecular target: T2, PPARγ (UniProt P37238); conditions: On-chip MITOMI, 1 h equilibration; buffer, salt, pH and temperature not in the material (as ref. 23)
T2 sequence: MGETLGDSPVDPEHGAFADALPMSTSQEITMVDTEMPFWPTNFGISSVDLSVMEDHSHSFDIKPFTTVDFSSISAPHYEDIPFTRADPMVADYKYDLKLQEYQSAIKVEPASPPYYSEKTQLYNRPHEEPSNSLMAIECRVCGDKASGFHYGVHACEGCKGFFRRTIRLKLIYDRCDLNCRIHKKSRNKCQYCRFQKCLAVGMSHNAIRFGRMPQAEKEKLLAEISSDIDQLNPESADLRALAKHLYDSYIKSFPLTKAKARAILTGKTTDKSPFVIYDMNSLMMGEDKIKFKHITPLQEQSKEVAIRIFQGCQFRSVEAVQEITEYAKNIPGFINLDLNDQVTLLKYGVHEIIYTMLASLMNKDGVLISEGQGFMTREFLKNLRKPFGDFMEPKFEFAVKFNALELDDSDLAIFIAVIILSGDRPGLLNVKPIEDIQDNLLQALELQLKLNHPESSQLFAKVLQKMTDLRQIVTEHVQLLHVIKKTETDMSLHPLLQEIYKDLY

[1] = molecular target: PPARγ;RXRα (Mus musculus?;Mus musculus?) (UniProt P37238+P28700); conditions: KDoD from cooperative model; On-chip MITOMI, 1 h equilibration; buffer, salt, pH and temperature not in the material (as ref. 23)

## AAAATAGGTCAAAGGTCAAA (double strand) [PPRE C4A]
RXRα
  Ka: 1.64e+08 M⁻¹

## AAACAAGGTCAAAGGTCAAA (double strand) [PPRE T5A]
RXRα
  Ka: 7.87e+07 M⁻¹

## AAACCAGGTCAAAGGTCAAA (double strand) [PPRE T5C]
RXRα
  Ka: 3.82e+08 M⁻¹

## AAACGAGGTCAAAGGTCAAA (double strand) [PPRE T5G]
RXRα
  Ka: 9.82e+07 M⁻¹

## AAACTAAGTCAAAGGTCAAA (double strand) [PPRE G7A]
RXRα
  Ka: 7.36e+06 M⁻¹

## AAACTACGTCAAAGGTCAAA (double strand) [PPRE G7C]
RXRα
  Ka: 6.66e+06 M⁻¹

## AAACTAGATCAAAGGTCAAA (double strand) [PPRE G8A]
RXRα
  Ka: 4.91e+06 M⁻¹

## AAACTAGCTCAAAGGTCAAA (double strand) [PPRE G8C]
RXRα
  Ka: 980000 M⁻¹

## AAACTAGGACAAAGGTCAAA (double strand) [PPRE T9A]
RXRα
  Ka: 2.04e+06 M⁻¹

## AAACTAGGCCAAAGGTCAAA (double strand) [PPRE T9C]
RXRα
  Ka: 5.86e+06 M⁻¹

## AAACTAGGGCAAAGGTCAAA (double strand) [PPRE T9G]
RXRα
  Ka: 9.19e+06 M⁻¹

## AAACTAGGTAAAAGGTCAAA (double strand) [PPRE C10A]
RXRα
  Ka: 3.42e+06 M⁻¹

## AAACTAGGTCAAAAGTCAAA (double strand) [PPRE G14A]
RXRα
  Ka: 2.41e+06 M⁻¹

## AAACTAGGTCAAACGTCAAA (double strand) [PPRE G14C]
RXRα
  Ka: 860000 M⁻¹

## AAACTAGGTCAAAGATCAAA (double strand) [PPRE G15A]
RXRα
  Ka: 2.73e+06 M⁻¹

## AAACTAGGTCAAAGCTCAAA (double strand) [PPRE G15C]
RXRα
  Ka: 218000 M⁻¹

## AAACTAGGTCAAAGGACAAA (double strand) [PPRE T16A]
RXRα
  Ka: 906000 M⁻¹

## AAACTAGGTCAAAGGCCAAA (double strand) [PPRE T16C]
RXRα
  Ka: 3.59e+06 M⁻¹

## AAACTAGGTCAAAGGGCAAA (double strand) [PPRE T16G]
RXRα
  Ka: 1.33e+07 M⁻¹

## AAACTAGGTCAAAGGTAAAA (double strand) [PPRE C17A]
RXRα
  Ka: 4.39e+06 M⁻¹

## AAACTAGGTCAAAGGTCAAA (double strand) [PPRE]
PPARγ
  Ka: 2.08e+06 M⁻¹
RXRα
  Ka: 1.98e+08 M⁻¹
[1]
  Ka: 1.46e+22 M-2

## AAACTAGGTCAAAGGTCAAC (double strand) [PPRE A20C]
RXRα
  Ka: 9.97e+08 M⁻¹

## AAACTAGGTCAAAGGTCAAG (double strand) [PPRE A20G]
RXRα
  Ka: 1e+09 M⁻¹

## AAACTAGGTCAAAGGTCAAT (double strand) [PPRE A20T]
RXRα
  Ka: 2.79e+08 M⁻¹

## AAACTAGGTCAAAGGTCACA (double strand) [PPRE A19C]
RXRα
  Ka: 1.22e+08 M⁻¹

## AAACTAGGTCAAAGGTCAGA (double strand) [PPRE A19G]
RXRα
  Ka: 1.1e+07 M⁻¹

## AAACTAGGTCAAAGGTCATA (double strand) [PPRE A19T]
RXRα
  Ka: 3.78e+07 M⁻¹

## AAACTAGGTCAAAGGTGAAA (double strand) [PPRE C17G]
RXRα
  Ka: 1.32e+07 M⁻¹

## AAACTAGGTCAAAGTTCAAA (double strand) [PPRE G15T]
RXRα
  Ka: 4.44e+07 M⁻¹

## AAACTAGGTCAAATGTCAAA (double strand) [PPRE G14T]
RXRα
  Ka: 5.14e+06 M⁻¹

## AAACTAGGTCAACGGTCAAA (double strand) [PPRE A13C]
RXRα
  Ka: 1.05e+06 M⁻¹

## AAACTAGGTCAAGGGTCAAA (double strand) [PPRE A13G]
RXRα
  Ka: 1.61e+07 M⁻¹

## AAACTAGGTCAATGGTCAAA (double strand) [PPRE A13T]
RXRα
  Ka: 398000 M⁻¹

## AAACTAGGTCACAGGTCAAA (double strand) [PPRE A12C]
RXRα
  Ka: 7.95e+06 M⁻¹

## AAACTAGGTCAGAGGTCAAA (double strand) [PPRE A12G]
RXRα
  Ka: 2.69e+07 M⁻¹

## AAACTAGGTCATAGGTCAAA (double strand) [PPRE A12T]
RXRα
  Ka: 4.38e+07 M⁻¹

## AAACTAGGTCCAAGGTCAAA (double strand) [PPRE A11C]
RXRα
  Ka: 368000 M⁻¹

## AAACTAGGTCGAAGGTCAAA (double strand) [PPRE A11G]
RXRα
  Ka: 5.54e+06 M⁻¹

## AAACTAGGTCTAAGGTCAAA (double strand) [PPRE A11T]
RXRα
  Ka: 802000 M⁻¹

## AAACTAGGTGAAAGGTCAAA (double strand) [PPRE C10G]
RXRα
  Ka: 2.66e+07 M⁻¹

## AAACTAGGTTAAAGGTCAAA (double strand) [PPRE C10T]
RXRα
  Ka: 1.7e+07 M⁻¹

## AAACTAGTTCAAAGGTCAAA (double strand) [PPRE G8T]
RXRα
  Ka: 2.54e+07 M⁻¹

## AAACTATGTCAAAGGTCAAA (double strand) [PPRE G7T]
RXRα
  Ka: 9.75e+06 M⁻¹

## AAACTCGGTCAAAGGTCAAA (double strand) [PPRE A6C]
RXRα
  Ka: 8.8e+06 M⁻¹

## AAACTGGGTCAAAGGTCAAA (double strand) [PPRE A6G]
RXRα
  Ka: 1.73e+08 M⁻¹

## AAACTTGGTCAAAGGTCAAA (double strand) [PPRE A6T]
RXRα
  Ka: 4.68e+06 M⁻¹

## AAAGTAGGTCAAAGGTCAAA (double strand) [PPRE C4G]
RXRα
  Ka: 1.38e+08 M⁻¹

## AAATTAGGTCAAAGGTCAAA (double strand) [PPRE C4T]
RXRα
  Ka: 2.59e+08 M⁻¹

## AACCTAGGTCAAAGGTCAAA (double strand) [PPRE A3C]
RXRα
  Ka: 1.25e+08 M⁻¹

## AAGCTAGGTCAAAGGTCAAA (double strand) [PPRE A3G]
RXRα
  Ka: 5.27e+07 M⁻¹

## AATCTAGGTCAAAGGTCAAA (double strand) [PPRE A3T]
RXRα
  Ka: 1.98e+08 M⁻¹

## ACACTAGGTCAAAGGTCAAA (double strand) [PPRE A2C]
RXRα
  Ka: 4.33e+07 M⁻¹

## AGACTAGGTCAAAGGTCAAA (double strand) [PPRE A2G]
RXRα
  Ka: 2.05e+08 M⁻¹

## ATACTAGGTCAAAGGTCAAA (double strand) [PPRE A2T]
RXRα
  Ka: 1.45e+08 M⁻¹

## CAACTAGGTCAAAGGTCAAA (double strand) [PPRE A1C]
RXRα
  Ka: 1.17e+08 M⁻¹

## GAACTAGGTCAAAGGTCAAA (double strand) [PPRE A1G]
RXRα
  Ka: 1e+08 M⁻¹

## TAACTAGGTCAAAGGTCAAA (double strand) [PPRE A1T]
RXRα
  Ka: 1.01e+08 M⁻¹
